For 55 variants, abundance fitness results are on record in the Human Domainome abundance scans (Beltran et al. 2025).

B1: Histone-lysine N-methyltransferase 2A, residues 1148 to 1194; numbered along this chain, Q03164 (parent)
chain: KGRRSRRCGQCPGCQVPEDCGVCTNCLDKPKFGGRNIKKQCCKMRKC

± gives the uncertainty stated by the source.

The variants in this data set derive from B1. The experiment in a line: abundance fitness (aPCA) (normalised: wild type 0, dead -1); higher = more abundant; growth selection in yeast, the domain comes from the species named. As to conditions: Homo sapiens.
In the case of KGRRSRRCGQCPGCQVPEDCGVCTNCLDKPKFGGRNIPKQCCKMRKC [K38P], the abundance fitness was -0.29 ± 0.14. For KGRRSRRCGQCPGCQVPEDCGVCTNCLDKPKFGGRNIGKQCCKMRKC [K38G] the value was -0.35 ± 0.095.

Turning to KGRRSRRCGQCPGCQVPEDCGVCTNCLDKPKFGGRNIAKQCCKMRKC [K38A], the abundance fitness is -0.099 ± 0.096.

For KGRRSRRCGQCPGCQVPEDCGVCTNCLDKPKFGGRNIQKQCCKMRKC [K38Q], the abundance fitness was -0.348 ± 0.15.

In the case of KGRRSRRCGQCPGCQVPEDCGVCTNCLDKPKFGGRNICKQCCKMRKC [K38C], the abundance fitness is -0.363 ± 0.12.

For KGRRSRRCGQCPGCQVPEDCGVCTNCLDKPKFGGRNISKQCCKMRKC [K38S], the abundance fitness was -0.011 ± 0.095. For KGRRSRRCGQCPGCQVPEDCGVCTNCLDKPKFGGRNIEKQCCKMRKC [K38E] the value was -0.166 ± 0.12. In the case of KGRRSRRCGQCPGCQVPEDCGVCTNCLDKPKFGGRNIFKQCCKMRKC [K38F], the abundance fitness was -0.125 ± 0.16.

KGRRSRRCGQCPGCQVPEDCGVCTNCLDKPKFGGRNIDKQCCKMRKC [K38D]: the abundance fitness was -0.111 ± 0.16. With KGRRSRRCGQCPGCQVPEDCGVCTNCLDKPKFGGRNIIKQCCKMRKC [K38I] the figure was 0.275 ± 0.2; with KGRRSRRCGQCPGCQVPEDCGVCTNCLDKPKFGGRNIMKQCCKMRKC [K38M], -0.136 ± 0.15; with KGRRSRRCGQCPGCQVPEDCGVCTNCLDKPKFGGRNIRKQCCKMRKC [K38R], -0.036 ± 0.085. With KGRRSRRCGQCPGCQVPEDCGVCTNCLDKPKFGGRNITKQCCKMRKC [K38T] the figure was -0.221 ± 0.12. With KGRRSRRCGQCPGCQVPEDCGVCTNCLDKPKFGGRNILKQCCKMRKC [K38L] the figure was 0.143 ± 0.088; with KGRRSRRCGQCPGCQVPEDCGVCTNCLDKPKFGGRNIWKQCCKMRKC [K38W], -0.245 ± 0.14; with KGRRSRRCGQCPGCQVPEDCGVCTNCLDKPKFGGRMIKKQCCKMRKC [N36M], -0.274 ± 0.2. As for KGRRSRRCGQCPGCQVPEDCGVCTNCLDKPKFGGRCIKKQCCKMRKC [N36C], the abundance fitness was -0.344 ± 0.11. With KGRRSRRCGQCPGCQVPEDCGVCTNCLDKPKFGGRDIKKQCCKMRKC [N36D] the figure was 0.134 ± 0.11; with KGRRSRRCGQCPGCQVPEDCGVCTNCLDKPKFGGRAIKKQCCKMRKC [N36A], -0.339 ± 0.09. For KGRRSRRCGQCPGCQVPEDCGVCTNCLDKPKFGGRVIKKQCCKMRKC [N36V] the value was -0.814 ± 0.12. In the case of KGRRSRRCGQCPGCQVPEDCGVCTNCLDKPKFGGRHIKKQCCKMRKC [N36H], the abundance fitness was -0.076 ± 0.18. With KGRRSRRCGQCPGCQVPEDCGVCTNCLDKPKFGGREIKKQCCKMRKC [N36E] the figure was 0.003 ± 0.091; with KGRRSRRCGQCPGCQVPEDCGVCTNCLDKPKFGGRWIKKQCCKMRKC [N36W], -0.595 ± 0.11; with KGRRSRRCGQCPGCQVPEDCGVCTNCLDKPKFGGRYIKKQCCKMRKC [N36Y], -0.569 ± 0.17. For KGRRSRRCGQCPGCQVPEDCGVCTNCLDKPKFGGRGIKKQCCKMRKC [N36G] the value was -0.091 ± 0.075; for KGRRSRRCGQCPGCQVPEDCGVCTNCLDKPKFGGRQIKKQCCKMRKC [N36Q], 0.151 ± 0.18; for KGRRSRRCGQCPGCQVPEDCGVCTNCLDKPKFGGRPIKKQCCKMRKC [N36P], -0.62 ± 0.14. Take KGRRSRRCGQCPGCQVPEDCGVCTNCLDKPKFGGRLIKKQCCKMRKC [N36L]: the abundance fitness is -0.651 ± 0.11. With KGRRSRRCGQCPGCQVPEDCGVCTNCLDKPKFGGRTIKKQCCKMRKC [N36T] the figure was -0.731 ± 0.15; with KGRRSRRCGQCPGCQVPEDCGVCTNCLDKPKFGGRKIKKQCCKMRKC [N36K], -0.63 ± 0.15.

As for KGRRSRRCGQCPGCQVPEDCGVCTNCLDKPKFGGRIIKKQCCKMRKC [N36I], the abundance fitness was -0.952 ± 0.33.

Consider KGRRSRRCGQCPGCQVPEDCGVCTNCLDKPKFGGRFIKKQCCKMRKC [N36F], for which the abundance fitness is -0.694 ± 0.18. For KGRRSRRCGQCPGCQVPEDCGVCTNCLDKPKFGGRSIKKQCCKMRKC [N36S] the value was -0.523 ± 0.092. For KGRRSRRCGQCPGCQVPEDCGVCTNCLDKPKFGGRRIKKQCCKMRKC [N36R] the value was -0.672 ± 0.1. As to KGRRSRRCGQCPGCQVPEDCGVCTNCLDKPKFGGSNIKKQCCKMRKC [R35S], the abundance fitness is -0.01 ± 0.083.

Regarding KGRRSRRCGQCPGCQVPEDCGVCTNCLDKPKFGGYNIKKQCCKMRKC [R35Y], the abundance fitness is -0.036 ± 0.16. For KGRRSRRCGQCPGCQVPEDCGVCTNCLDKPKFGGINIKKQCCKMRKC [R35I] the value was -0.438 ± 0.17; for KGRRSRRCGQCPGCQVPEDCGVCTNCLDKPKFGGANIKKQCCKMRKC [R35A], 0.189 ± 0.084.

KGRRSRRCGQCPGCQVPEDCGVCTNCLDKPKFGGNNIKKQCCKMRKC [R35N]: the abundance fitness was found to be 0.343 ± 0.14. With KGRRSRRCGQCPGCQVPEDCGVCTNCLDKPKFGGKNIKKQCCKMRKC [R35K] the figure was 0.19 ± 0.12.

Regarding KGRRSRRCGQCPGCQVPEDCGVCTNCLDKPKFGGDNIKKQCCKMRKC [R35D], the abundance fitness stood at 0.168 ± 0.1. With KGRRSRRCGQCPGCQVPEDCGVCTNCLDKPKFGGPNIKKQCCKMRKC [R35P] the figure was 0.075 ± 0.097; with KGRRSRRCGQCPGCQVPEDCGVCTNCLDKPKFGGWNIKKQCCKMRKC [R35W], -0.524 ± 0.14. As for KGRRSRRCGQCPGCQVPEDCGVCTNCLDKPKFGGMNIKKQCCKMRKC [R35M], the abundance fitness amounted to 0.143 ± 0.1. With KGRRSRRCGQCPGCQVPEDCGVCTNCLDKPKFGGFNIKKQCCKMRKC [R35F], the abundance fitness is -0.043 ± 0.13. For KGRRSRRCGQCPGCQVPEDCGVCTNCLDKPKFGGCNIKKQCCKMRKC [R35C] the value was -0.229 ± 0.14; for KGRRSRRCGQCPGCQVPEDCGVCTNCLDKPKFGGTNIKKQCCKMRKC [R35T], -0.016 ± 0.096.

As for KGRRSRRCGQCPGCQVPEDCGVCTNCLDKPKFGGGNIKKQCCKMRKC [R35G], the abundance fitness amounted to 0.022 ± 0.075.

On to KGRRSRRCGQCPGCQVPEDCGVCTNCLDKPKFGGQNIKKQCCKMRKC [R35Q], for which the abundance fitness came to 0.065 ± 0.12. With KGRRSRRCGQCPGCQVPEDCGVCTNCLDKPKFGGVNIKKQCCKMRKC [R35V] the figure was -0.089 ± 0.074; with KGRRSRRCGQCPGCQVPEDCGVCTNCLDKPKFGGHNIKKQCCKMRKC [R35H], 0.128 ± 0.13; with KGRRSRRCGQCPGCQVPEDCGVCTNCLDKPKFGGRNHKKQCCKMRKC [I37H], -0.258 ± 0.17. On to KGRRSRRCGQCPGCQVPEDCGVCTNCLDKPKFGGRNAKKQCCKMRKC [I37A], for which the abundance fitness was -0.025 ± 0.09. On to KGRRSRRCGQCPGCQVPEDCGVCTNCLDKPKFGGRNDKKQCCKMRKC [I37D], for which the abundance fitness was found to be 0.265 ± 0.11. For KGRRSRRCGQCPGCQVPEDCGVCTNCLDKPKFGGRNWKKQCCKMRKC [I37W] the value was -0.431 ± 0.099.
